In article PMC4862330 one finds percent decrease in F-actin binding compared with wild type data, which are given here for 1 substance.

This assay addresses F-actin (polymerized rabbit skeletal muscle G-actin) (rabbit) (UniProt P68135). Description: co-sedimentation.

“talin ABS2 6× mutant (K922E/Q923E/Q930E/K1500E/R1510E/K1522E) (from UniProt P26039 1-2541) (domain or fragment)” returned a percent decrease in F-actin binding compared with wild type of 60%.
